Measured values from publication doi:10.1101/2023.10.24.563787 (bioRxiv, 2023).

Biological target: the molecule itself
Experiment: cryo-EM structure

B1: 3xFLAG-Lip1, small regulatory subunit of the yeast ceramide synthase (CerS) complex (natural protein, S. cerevisiae)
chain: PKIFNLFRVCFISLLLIAAVEYFKYGTRINYEWFHCTPIKEPQSGSVIKLWARGGPSCDKRGEYKTIVKRITRDYEPNDEHLSFCIIENDNVPPVHYPIHEDKGEPGYVAYVGYDTDSELVQELCADSTIYHM
Q: Which “stoichiometry N” value does the source give for B1 here?
A: 2
